Assay results taken from the supplement of paper PMC9732359.
± gives the uncertainty stated by the source.

Assay: protein stability index of a GFP-peptide fusion (yeast GPS) (PSI 1-4); higher = more stable; sorted into four equal gates, so the index is relative within each strain
Summary of the method: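 The protein stability index combines read frequencies across sorting gates, each weighted by its gate number and then summed. To obtain those frequencies, a pooled yeast library of GFP fusions to tiled 17-residue yeast protein peptides, on a plasmid also expressing Cherry, was grown to mid-log phase in leucine-free medium. The cells were sorted into four equal gates by GFP/Cherry ratio before plasmid amplification by PCR and Illumina sequencing.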

Sequence | protein stability index (doa10∆) | protein stability index (pdr5∆) | protein stability index (san1∆) | protein stability index (ubr1∆)
VDNENNKPAIKEDSTIQ [SWI3] | 2.84 ± 0.063 | 2.97 ± 0.069 | 3.08 ± 0.058 | 3.12 ± 0.062
AIKELNYNRIAKICALL [NUT1] | 2.41 ± 0.059 | 2.44 ± 0.065 | 2.37 ± 0.08 | 2.32 ± 0.043
NAEKTGKRQVLIRPSSK [RPS22A] | 3.28 ± 0.16 | 3.26 ± 0.12 | 3.13 ± 0.14 | 3.03 ± 0.075
VIVTDPRSDAQAIKEAS [RPS0A] | 2.88 ± 0.089 | 2.96 ± 0.08 | 2.92 ± 0.068 | 2.91 ± 0.061
LEYNVALNDVYLDADVA [YML031W/NDC1] | 3.32 ± 0.13 | 3.33 ± 0.13 | 3.05 ± 0.12 | –
ICNTLNIAKDLKWKKGI [SMC1] | 1.43 ± 0.1 | 1.26 ± 0.14 | 1.45 ± 0.17 | 2.69 ± 0.24
NENNNNSSEKNNNNNNN [MED2] | 2.91 ± 0.066 | 2.96 ± 0.065 | 3.04 ± 0.071 | 2.95 ± 0.07
CNGSALVEARSLGHQTS [MTR3] | 3.52 ± 0.17 | – | 3.1 ± 0.22 | –
KKNVWRSINNLIQEHDS [BRN1] | 3.16 ± 0.1 | 2.75 ± 0.075 | 2.63 ± 0.052 | 2.57 ± 0.041
NFASGDNNTASNMLGSN [RPB3] | 3 ± 0.12 | 2.98 ± 0.089 | 3 ± 0.12 | 3.24 ± 0.21
LEIRNKICSSEMINEQK [RGR1] | 3.02 ± 0.11 | 2.91 ± 0.14 | 3.01 ± 0.15 | 2.9 ± 0.12
DTVIIFDTDWNPHQDLQ [SNF2] | 2.93 ± 0.064 | 3.1 ± 0.05 | 3.02 ± 0.033 | 2.84 ± 0.044
LTKAQKYLEQVLDHQRA [RPL17A] | 2.69 ± 0.056 | 2.73 ± 0.063 | 2.47 ± 0.062 | 2.51 ± 0.039
MLGIRSSVKTCFKPMSL [RIP1] | 2.9 ± 0.074 | 3.05 ± 0.079 | 2.83 ± 0.057 | 2.9 ± 0.052
QRGKMHGLKQLRDSLAD [NUT2] | 3.04 ± 0.077 | 2.67 ± 0.062 | 1.48 ± 0.071 | 2.1 ± 0.06
FQTIFSKQDLIHSLIPV [SIN4] | 1.93 ± 0.046 | 1.9 ± 0.064 | 1.66 ± 0.11 | 1.7 ± 0.05
KHYLEDKLKVYKQAMNE [SNF5] | 3.19 ± 0.093 | 3.18 ± 0.12 | 3.1 ± 0.1 | 3.08 ± 0.067
LLDTNSLEENAMSTVTL [SKI6] | 3.11 ± 0.086 | 3.04 ± 0.066 | 3.04 ± 0.083 | 2.89 ± 0.061
RQRELLIAHQRSAWNNN [GRR1] | 1.94 ± 0.045 | 2.24 ± 0.046 | 2.31 ± 0.06 | 2.16 ± 0.035
VRNSFPLDEIPVDVDFN [REC8] | 2.71 ± 0.12 | 2.33 ± 0.096 | 2.57 ± 0.078 | 2.99 ± 0.065
RQKINGCEANIHSLVKQ [YIL149C/MLP2] | 3.12 ± 0.14 | 3.33 ± 0.13 | 2.98 ± 0.22 | 2.79 ± 0.21
EGVEYSFLHVDDKLAYI [POP8] | 1.86 ± 0.097 | 2.1 ± 0.088 | 1.86 ± 0.11 | 2.04 ± 0.074
KQTAAYRTPGSSGVLSS [SSN2] | 2.88 ± 0.063 | 3.04 ± 0.063 | 2.87 ± 0.077 | 2.88 ± 0.045
VDTLHNKEGTLEQREQN [SSN2] | 3.14 ± 0.15 | 3.47 ± 0.099 | 3.21 ± 0.058 | 3.35 ± 0.081
SLRETNTTDPLGHTKAA [SIR2] | 2.77 ± 0.15 | 2.7 ± 0.15 | 2.85 ± 0.13 | 3.2 ± 0.082
WIKFLLHTLYLRPASAI [SSN8] | 1.74 ± 0.045 | 1.29 ± 0.035 | 1.25 ± 0.068 | 1.15 ± 0.038
RIISGDQITKMKDRLVE [RPN9] | – | – | 3.34 ± 0.26 | 2.69 ± 0.19

Sequence | protein stability index (doa10∆) | protein stability index (pdr5∆) | protein stability index (san1∆) | protein stability index (ubr1∆)
TQIVAKFPETSYPILNE [SIN4] | 2.92 ± 0.091 | 3.02 ± 0.068 | 2.91 ± 0.081 | 2.89 ± 0.057
PSFMLKHHQLFYMLNAG [RPN1] | 1.33 ± 0.099 | 1.53 ± 0.11 | 1.18 ± 0.19 | 1.12 ± 0.086
SKKISNTAAALVSLLDE [YAR002W/NUP60] | 2.9 ± 0.095 | 2.67 ± 0.086 | 2.92 ± 0.052 | 2.78 ± 0.07
PTPVVTISEKEQDILDL [SSN2] | 2.76 ± 0.1 | 2.02 ± 0.095 | 2.61 ± 0.12 | 2.73 ± 0.099
LFDTYHASKAIGLPRHS [RRP6] | 2.15 ± 0.061 | 2.29 ± 0.06 | 2.34 ± 0.081 | 2.08 ± 0.071
SSETDDDHSQVINPQQL [DSN1] | 2.99 ± 0.048 | 3.13 ± 0.05 | 2.99 ± 0.044 | 3.08 ± 0.048
YNNRKCWPKDSRMRLIR [PRP8] | 2.05 ± 0.09 | 2.13 ± 0.12 | 2.19 ± 0.11 | 2.64 ± 0.14
LESDVNIALVSKLRNNI [SRP54] | 2.31 ± 0.065 | 2.63 ± 0.056 | 2.74 ± 0.052 | 2.98 ± 0.067
LHGLTPTAKDVEVIKQL [GAL11] | 3.08 ± 0.078 | 2.64 ± 0.13 | – | 2.26 ± 0.078
PRPSYSSRPNVNTTRRF [YMR129W/POM152] | 2.89 ± 0.099 | 2.97 ± 0.096 | 2.92 ± 0.074 | 2.82 ± 0.067
EKELQNEIKQLGSDSSD [SRB4] | 2.95 ± 0.1 | 2.81 ± 0.1 | 2.27 ± 0.087 | 2.85 ± 0.12
AVHVTVRGPKAEEILER [RPL11A] | 2.99 ± 0.11 | 2.98 ± 0.094 | 2.92 ± 0.12 | 3.05 ± 0.074
FKMNEIVPLHSPFLMGH [SEC65] | 2.71 ± 0.067 | 2.59 ± 0.072 | 2.59 ± 0.082 | 2.62 ± 0.057
NDIAGQPQALQKSGRPV [RPO21] | 2.93 ± 0.087 | 3.16 ± 0.12 | 2.84 ± 0.16 | 2.96 ± 0.073
AYKFEEVSKDLIAVYYS [RPB8] | 2.94 ± 0.071 | 3.14 ± 0.067 | 3.32 ± 0.045 | 3.11 ± 0.055
RAKAMKFADGFLIHSGQ [RPS3] | 3.4 ± 0.11 | 3.03 ± 0.093 | 3.13 ± 0.061 | 3.22 ± 0.037
EKAKSAGTQSSKFSKQQ [RPL24A] | 3.15 ± 0.064 | 3.23 ± 0.076 | 3.32 ± 0.047 | 3.12 ± 0.067
LVAKFLYPIFLLDDKKL [YJR042W/NUP85] | 1.49 ± 0.034 | 1.29 ± 0.033 | 1.16 ± 0.073 | 1.26 ± 0.027
AVAVGNVEMEEDVLVNQ [RPL1A] | 2.19 ± 0.091 | 2.17 ± 0.075 | 1.17 ± 0.11 | 2 ± 0.059
SSVKTCFKPMSLTSKRL [RIP1] | 3.02 ± 0.063 | 3.04 ± 0.063 | 2.85 ± 0.047 | 2.62 ± 0.033
SHSLALNEITNSKVNKL [DSN1] | 2.33 ± 0.04 | 2.57 ± 0.04 | 2.48 ± 0.035 | 2.54 ± 0.033
FFKPLDYITEAVFKIVL [SNU114] | 2.06 ± 0.047 | 1.95 ± 0.055 | 1.47 ± 0.073 | 1.88 ± 0.035
SKVTVPPSKHSTLTLSD [ESC2] | 3.29 ± 0.12 | 3.09 ± 0.13 | 2.9 ± 0.071 | 3.1 ± 0.098
PVYATIGVETGSEPLIQ [PRP28] | 2.84 ± 0.066 | 3.1 ± 0.076 | 2.92 ± 0.064 | 2.86 ± 0.12
LSTRAGGLGLNLQTADT [SNF2] | 2.75 ± 0.084 | 2.7 ± 0.068 | 2.7 ± 0.076 | 3.2 ± 0.058
LKLCLGDHSSVPVALKG [YMR129W/POM152] | 2.79 ± 0.086 | 2.91 ± 0.06 | 2.74 ± 0.1 | 3 ± 0.048
